Reference: patent US6558950 (MCGILL UNIVERSITY, dated 2003)
No end group written: not given here.

What was measured:
32P-Bcl-2Δc21/his6/HMK [1] = target: T1, 32P-Bcl-2Δc21/his6/HMK (human, UniProt P10415 1-218, 32P-labelled with heart muscle kinase and 32P-gamma-ATP at the C-terminal HMK recognition sequence (arg-arg-ala-ser)); test: Far Western blot of reverse phase HPLC fractions (FIG. 2B)
T1 construct: range 1-218; Expressed in E. coli from the pTrchis vector; a soluble mixture of monomers and dimers at pH 7.4; also called 32P-labelled Bcl-2 cytosolic domain probe
Method: Aliquots of fractions eluted from the gel were assayed by ^32P-Bcl-2Δc21/his6/HMK Far Western blotting analysis, and the radioactive bands corresponding to p20 and p21 Bax were detected and quantified by Phosphorimager. The levels relative to the maximal signal detected (set at 100) were plotted as a bar graph (upper panel). […] The positions of molecular mass marker proteins are indicated. The black bars on the graph indicate p20. The white stippled bars on the graph indicate p21 Bax. Figure 2B: FIG. 2B is a reverse phase HPLC analysis ($A280$ profile; upper panel) and corresponding graph (lower panel) showing proteins eluted between 190 and 220 ml from the preparative SDS PAGE of FIG. 2A. Equal aliquots from all fractions were assayed for ^32P-Bcl-2Δc21/his6/HMK interacting protein by Far Western blotting analysis, for which only p20 was detected. Amounts relative to the maximal signal detected (set at 100) were plotted as a bar graph (lower panel). […]
Identification of the p20 Bcl-2-binding polypeptide was obtained by NH_2-terminal peptide sequence analysis of p20 following its isolation by a combination of differential solubilization in detergent, preparative SDS PAGE, and reverse phase HPLC (FIGS. 2A and 2B). […] One candidate sequence emerged, and was the only sequence that was detected in the peak fraction of Bcl-2 binding activity (fraction 54, FIG. 2B).

32P-Bcl-2Δc21/his6/HMK [2] = target: T1, 32P-Bcl-2Δc21/his6/HMK; test: Far Western blot of purified GST fusion proteins
[3] = target: T2, 35S-labelled transcription-translation product of p28 Bap31 cDNA
T2 chain: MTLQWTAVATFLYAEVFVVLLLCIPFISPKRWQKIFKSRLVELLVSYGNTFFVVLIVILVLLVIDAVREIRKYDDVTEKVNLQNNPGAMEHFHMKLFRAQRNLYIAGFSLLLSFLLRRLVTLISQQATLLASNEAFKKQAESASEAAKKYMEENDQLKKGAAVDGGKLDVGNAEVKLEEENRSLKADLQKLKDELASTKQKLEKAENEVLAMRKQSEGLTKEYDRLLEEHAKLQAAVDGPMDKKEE

[4] = target: T3, Bax (transfected, 293T cells) (UniProt Q07812 1-192, limits assumed); test: anti-Flag co-immunoprecipitation, anti-Bax Western blot
T3 construct: Detected with rabbit anti-Bax sc-526; also called the pro-apoptotic member of the Bcl-2 family
Method: After centrifugation at 11,000 g, the supernatant was incubated with 50 µl of a 1:1 slurry of protein G Sepharose for 1 hour at 4° C. The Sepharose was removed and the supernatant incubated with mouse M2 anti-Flag antibody (IBI-A Kodak Co., New Haven, Conn.) at 4° C. for 6–8 hours, at which time 20 µl of a 1:1 slurry of proteinG Sepharose was added. After 1 hour at 4° C., the beads were recovered, washed, and boiled in SDS sample buffer. Following SDS PAGE and transfer to nitrocellulose, blots were developed with either mouse anti-Myc 9E1D antibody or mouse anti-HA 12CA5 antibody (both from Babco, Berkeley, Calif.) or rabbit anti-Bax sc-526 antibody (commercially available from Santa Cruz Biotech., Inc., Santa Cruz, Calif.).

T1 sequence (P10415 other isoform, or with tags, fused parts or gaps mutant limits assumed): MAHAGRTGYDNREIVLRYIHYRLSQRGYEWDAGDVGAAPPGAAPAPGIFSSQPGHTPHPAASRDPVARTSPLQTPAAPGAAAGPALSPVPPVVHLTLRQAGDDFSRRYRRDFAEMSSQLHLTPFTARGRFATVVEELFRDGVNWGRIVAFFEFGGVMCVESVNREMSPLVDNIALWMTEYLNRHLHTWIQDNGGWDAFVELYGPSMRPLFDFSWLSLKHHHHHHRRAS
T3 sequence (Q07812 whole entry): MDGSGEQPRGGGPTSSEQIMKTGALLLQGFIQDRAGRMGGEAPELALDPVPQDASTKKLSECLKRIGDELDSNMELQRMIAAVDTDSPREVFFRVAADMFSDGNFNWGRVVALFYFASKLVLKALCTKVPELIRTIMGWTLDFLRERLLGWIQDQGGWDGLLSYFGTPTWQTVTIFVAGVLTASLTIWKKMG

B1: p20 cleavage product of p28 Bap31 (other)
chain: MTLQWTAVATFLYAEVFVVLLLCIPFISPKRWQKIFKSRLVELLVSYGNTFFVVLIVILVLLVIDAVREIRKYDDVTEKVNLQNNPGAMEHFHMKLFRAQRNLYIAGFSLLLSFLLRRLVTLISQQATLLASNEAFKKQAESASEAAKKYMEENDQLKKGAAVD
notes: Endogenous product in apoptotic human KB cells, on SDS-PAGE blots; also called cleavage product "b"
binding result (32P-Bcl-2Δc21/his6/HMK [1]): binds

B2: GST-p28 (1-164) (other)
chain: MTLQWTAVATFLYAEVFVVLLLCIPFISPKRWQKIFKSRLVELLVSYGNTFFVVLIVILVLLVIDAVREIRKYDDVTEKVNLQNNPGAMEHFHMKLFRAQRNLYIAGFSLLLSFLLRRLVTLISQQATLLASNEAFKKQAESASEAAKKYMEENDQLKKGAAVD
notes: Expressed in E. coli and purified on glutathione Sepharose; also called GST-p20; not shown: glutathione S-transferase encoded by pGEX-2T (Pharmacia)
binding result (32P-Bcl-2Δc21/his6/HMK [2]): binds

B3: FLICE (caspase-8) (protein)
chain: SESQTLDKVYQMKSKPRGYCLIINNHNFAKAREKVPKLHSIRDRNGTHLDAGALTTTFEELHFEIKPHDDCTVEQIYEILKIYQLMDHSNMDCFICCILSHGDKGIIYGTDGQEAPIYELTSQFTGLKCPSLAGKPKVFFIQACQGDNYQKGIPVETDSEEQPYLEMDLSSPQTRYIPDEADFLLGMATVNNCVSYRNPAEGTWYIQSLCQSLRERCPRGDDILTILTEVNYEVSNKDDKKNMGKQMPQPTFTLRKKLVFPSD
p20 cleavage product quantitated on a Phosphorimager [3]: p28 Bap31 was more sensitive to cleavage by FLICE (caspase-8) than ICE (caspase-1)

B4: GST-p28 (122-164) (other)
chain: LISQQATLLASNEAFKKQAESASEAAKKYMEENDQLKKGAAVD
modifications: also: GST fusion
notes: Expressed in E. coli and purified on glutathione Sepharose; not shown: glutathione S-transferase encoded by pGEX-2T (Pharmacia)
binding result (32P-Bcl-2Δc21/his6/HMK [2]): no binding

B5: CPP32 (caspase-3) (protein)
chain: SGISLDNSYKMDYPEMGLCIIINNKNFHKSTGMTSRSGTDVDAANLRETFRNLKYEVRNKNDLTREEIVELMRDVSKEDHSKRSSFVCVLLSHGEEGIIFGTNGPVDLKKITNFFRGDRCRSLTGKPKLFIIQACRGTELDCGIETDSGVDDDMACHKIPVEADFLYAYSTAPGYYSWRNSKDGSWFIQSLCAMLKQYADKLEFMHILTRVNRKVATEFESFSFDATFHAKKQIPCIVSMLTKELYFYH
cleavage of 35S-labelled p28 Bap31 in vitro (SDS-PAGE) [3]: little reactivity was observed for caspase-3 over a wide range of enzyme concentration

B6: Flag-tagged p28 Bap31 (other)
chain: MTLQWTAVATFLYAEVFVVLLLCIPFISPKRWQKIFKSRLVELLVSYGNTFFVVLIVILVLLVIDAVREIRKYDDVTEKVNLQNNPGAMEHFHMKLFRAQRNLYIAGFSLLLSFLLRRLVTLISQQATLLASNEAFKKQAESASEAAKKYMEENDQLKKGAAVDGGKLDVGNAEVKLEEENRSLKADLQKLKDELASTKQKLEKAENEVLAMRKQSEGLTKEYDRLLEEHAKLQAAVDGPMDYKDDDDKAMDKKEE
binding result [4]: no binding

B7: GST-p28 (1-246) (other)
chain: MTLQWTAVATFLYAEVFVVLLLCIPFISPKRWQKIFKSRLVELLVSYGNTFFVVLIVILVLLVIDAVREIRKYDDVTEKVNLQNNPGAMEHFHMKLFRAQRNLYIAGFSLLLSFLLRRLVTLISQQATLLASNEAFKKQAESASEAAKKYMEENDQLKKGAAVDGGKLDVGNAEVKLEEENRSLKADLQKLKDELASTKQKLEKAENEVLAMRKQSEGLTKEYDRLLEEHAKLQAAVDGPMDKKEE
notes: Expressed in E. coli and purified on glutathione Sepharose; The thrombin-site linker of pGEX-2T is not described; also called GST-p28 Bap31; not shown: glutathione S-transferase encoded by pGEX-2T (Pharmacia)
binding result (32P-Bcl-2Δc21/his6/HMK [2]): binds
